Measurements published in paper PMC12285911 (2025).

Biological target: T1, ^FAMFAT10 (GG–FAT10 N-terminally labeled with fluorescein amidite by sortase) (human, 5-FAM on the N terminus (5-FAM conjugated to the N terminus of the peptide …, attached by sortase))
T1 chain: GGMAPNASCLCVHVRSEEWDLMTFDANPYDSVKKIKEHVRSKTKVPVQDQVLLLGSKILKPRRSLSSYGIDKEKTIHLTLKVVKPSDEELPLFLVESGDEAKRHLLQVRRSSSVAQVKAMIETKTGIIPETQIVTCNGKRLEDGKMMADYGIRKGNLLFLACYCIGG
Assay: FP

B1: NUB1^Δ1–175 (domain or fragment)
chain: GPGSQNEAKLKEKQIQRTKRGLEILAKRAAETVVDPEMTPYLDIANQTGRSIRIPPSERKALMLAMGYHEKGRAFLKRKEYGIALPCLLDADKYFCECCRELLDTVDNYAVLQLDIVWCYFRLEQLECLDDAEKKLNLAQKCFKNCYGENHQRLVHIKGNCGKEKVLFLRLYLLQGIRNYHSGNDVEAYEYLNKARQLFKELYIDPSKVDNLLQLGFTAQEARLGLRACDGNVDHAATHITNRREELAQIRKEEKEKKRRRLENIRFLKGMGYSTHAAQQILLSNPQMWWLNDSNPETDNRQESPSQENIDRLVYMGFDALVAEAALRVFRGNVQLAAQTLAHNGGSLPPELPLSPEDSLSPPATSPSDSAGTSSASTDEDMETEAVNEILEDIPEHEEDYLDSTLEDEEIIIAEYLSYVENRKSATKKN
In the case of B1, the Kd is reported as 152 nM.
